# According to patent US11760795B2, “Monoclonal antibodies to growth and differentiation factor 15 (GDF-15), and uses thereof for treating cancer cachexia and cancer” (JULIUS-MAXIMILIANS-UNIVERSITÄT WÜRZBURG, priority 2014, dated 2023):
# T1: human GDF-15 precursor on human cells (Homo sapiens, UniProt Q99988)
# T1 construct: endogenous in cells
# T1 sequence (Q99988 30-308 limits assumed): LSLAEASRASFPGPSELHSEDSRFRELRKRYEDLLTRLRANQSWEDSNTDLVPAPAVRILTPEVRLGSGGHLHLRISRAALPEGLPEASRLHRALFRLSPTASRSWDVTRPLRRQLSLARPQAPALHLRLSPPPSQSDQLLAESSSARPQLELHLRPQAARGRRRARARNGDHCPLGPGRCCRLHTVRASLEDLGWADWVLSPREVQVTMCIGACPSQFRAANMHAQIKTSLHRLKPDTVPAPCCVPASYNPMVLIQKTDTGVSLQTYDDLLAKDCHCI
# T2: recombinant human GDF-15 (Homo sapiens, UniProt Q99988)
# T2 sequence (Q99988 with tags, fused parts or gaps): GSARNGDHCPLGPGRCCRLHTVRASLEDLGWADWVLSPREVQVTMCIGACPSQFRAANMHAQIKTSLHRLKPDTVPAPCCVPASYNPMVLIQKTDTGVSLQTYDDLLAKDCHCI
# Experiments:
# human Interleukin-5 = human Interleukin-5 (Homo sapiens, UniProt P05113); assay: Surface plasmon resonance control flow cell with human Interleukin-5; type: binding; settings: SPR, same coupling density
# [1] = test system: melanoma cell line UACC-257; assay: UACC-257 melanoma xenograft tumor growth in nude mice; type: in vivo, Balb/c^nu/nu nude mice; settings: 25 mg/kg i.p. twice a week; 48 days; p<0.05
# Method: FIG. 4: An anti-tumor effect of murine B1-23 in vivo. Balb/c^nu/nu nude mice were used in a xenograft setting with the melanoma cell line UACC-257. […] Significance was defined as p<0.05 as assessed by Wilcoxon's log-rank test.
# To assess an anti-tumor effect of B1-23 in viva, Balb/c^nu/nu nude mice were used in a xenograft setting with the melanoma cell line UACC-257. The mice were treated either with the antibody B1-23 or with PBS. Each treatment cohort contained 10 Balb/c^nu/nu nude mice.
# Prior to injection, the UACC-257 melanoma cells were grown in complete medium, excluding any contamination. […] Cells were then washed with PBS and counted. 1×10^7 viable cells were suspended in PBS.
# The first injection/treatment was administered in 6 week old Balb/c^nu/nu nude mice. The inoculation area of the mice was cleaned with ethanol. The UACC 257 cells were mixed and drawn into a syringe without a needle, in order to avoid negative pressure on the tumor cells. […]
# The intraperitoneal (i.p.) injection of either B1-23 (25 mg/kg body weight) or the same volume of PBS started immediately after the tumor cell inoculation (defined as day 1) and was administered twice a week. […] The tumor diameters were measured with a caliper and the tumor volume in mm^3 was calculated by the formula: Volume=(width)^2×length/2
# [2] = target: T1, human GDF-15 precursor on human cells; assay: Staining experiments on human cells; type: cell-based
# recombinant human GDF-15 = target: T2, recombinant human GDF-15; assay: Mass spectrometric epitope excision; type: binding; settings: trypsin 2 h at 37° C., MS/MS identification
# Method: The epitope of recombinant human GDF-15 which binds to the antibody B1-23 was identified by means of the epitope excision method and epitope extraction method (Suckau et al. Proc Nati Acad Sci USA. 1990 December; 87(24): 9848-9852; R. Stefanescu et al., Eur. J. Mass Spectrom. 13, 69-75 (2007)).
# For preparation of the antibody column, the antibody B1-23 was added to NHS-activated 6-aminohexanoic acid coupled sepharose. The sepharose-coupled antibody B1-23 was then loaded into a 0.8 ml microcolumn and washed with blocking and washing buffers.
# The immobilized antibody B1-23 on the affinity column was then incubated with recombinant GDF-15 for 2 h. The formed immune complex on the affinity column was then incubated with trypsin for 2 h at 37° C. […] The immobilized antibody itself is proteolytically stable. The resulting peptides of the digested GDF-15 protein, which were shielded by the antibody and thus protected from proteolytic cleavage, were eluted under acidic conditions (TFA, pH2), collected and identified by mass spectrometry.
# [3] = Study No. 140123: body weight of UACC-257 inoculated mice (cancer-induced weight loss); type: in vivo, Balb/c^nu/nu mice; settings: 38 days
# Method: FIG. 5: Treatment of cancer cachexia with anti-GDF-15 antibodies. […] The changes of the body weight are depicted in percent as compared to the starting body weight on day 0, for a period of 38 days.
# (§1) Treatment of cancer-induced weight loss with anti-GDF-15 antibodies. In the underlying animal study No. 140123, 10 Balb/c^nu/nu mice per treatment group were subcutaneously inoculated with 10×10^6 UACC-257 cells per animal in a 1:1 volume ratio with matrigel (100 μl cells+100 μl matrigel). The animals were treated on the same day with the respective antibodies, as indicated below:
# The study was carried out in a double-blinded manner for the treatment with the antibodies and for the treatment with PBS.
# [4] = Study No. 140123: feed consumption of UACC-257 inoculated mice; type: in vivo, Balb/c^nu/nu mice
# Method: as §1
# In addition to evaluating the mean body weight of the mice, the feed consumption of the mice was evaluated by pairwise comparisons of the study groups (Table 1).
# [5] = Gel electrophoresis and coomassie staining of antibodies used in study No. 140123; type: physicochemical
# Method: FIG. 6: Coomassie stain of antibodies used in the study No. 140123.
# The quality of the humanized anti-GDF-15 antibody B1-23-H1L5 used in the study was tested by using gel electrophoresis and coomassie staining of the antibodies (see FIG. 6).
# [6] = Aggregation study: shaking 48 hours at room temperature, visual analysis for precipitates; type: physicochemical; settings: PBS, no stabilizing proteins for H1L5
# Method: In order to test the aggregation properties of anti-GDF-15 antibodies, antibody samples were shaken for 48 hours at room temperature in microcentrifuge tubes, and subsequently, the tubes were visually analyzed for aggregated antibody precipitates.
# Chain of human Interleukin-5 (P05113 20-134): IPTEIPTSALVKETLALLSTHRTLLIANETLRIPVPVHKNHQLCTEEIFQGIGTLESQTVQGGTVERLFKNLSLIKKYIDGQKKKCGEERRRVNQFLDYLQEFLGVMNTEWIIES
molecule,measurement,setting,value
"mAb-B1-23: murine IgG2a (kappa) monoclonal anti-human GDF-15 antibody produced by hybridoma cell line B1-23, DSM ACC3142 (antibody, V domains shown) VH: QVKLQQSGPGILQSSQTLSLTCSFSGFSLSTSGMGVSWIRQPSGKGLEWLAHIYWDDDKRYNPTLKSRLTISKDPSRNQVFLKITSVDTADTATYYCARSSYGAMDYWGQGTSVTVSS VL: DIVLTQSPKFMSTSVGDRVSVTCKASQNVGTNVAWFLQKPGQSPKALIYSASYRYSGVPDRFTGSGSGTDFTLTISNVQSEDLAEYFCQQYNNFPYTFGGGTKLEIKRTVA",binding to human interleukin-5,human Interleukin-5,no binding
same,tumor size compared to the PBS control group,[1],significantly decreased
same,binding to the human GDF-15 precursor on human cells,[2],capable of binding
same,positions of GDF-15 peptides forming the immune complex (epitope),recombinant human GDF-15,40-55 ([…]) and 94-114 ([…])
same,body weight change compared to day 0,[3],increase in body weight
same,Feed consumption per mouse and day,"[4]; average over day 17-34 intervals, with standard deviation",3.6 ± 0.2 g
same,feed consumption compared with groups which did not receive the anti-GDF-15 antibodies,"[4]; mouse, in vivo",significantly higher
same,band appearance / aggregation in coomassie gel,[5],less sharp and at a higher molecular weight
same,tendency to aggregate,[6],can form aggregates
